# Measured values from paper doi:10.1101/322404, “Discovery of a novel stereospecific β-hydroxyacyl-CoA lyase/thioesterase shared by three metabolic pathways in Mycobacterium tuberculosis” (bioRxiv, 2018).
# B1: Mycobacterium tuberculosis Rv2498c, β-hydroxyacyl-CoA lyase/thioesterase (enzyme)
# chain: MNLRAAGPGWLFCPADRPERFAKAAAAADVVILDLEDGVAEAQKPAARNALRDTPLDPERTVVRINAGGTADQARDLEALAGTAYTTVMLPKAESAAQVIELAPRDVIALVETARGAVCAAEIAAADPTVGMMWGAEDLIATLGGSSSRRADGAYRDVARHVRSTILLAASAFGRLALDAVHLDILDVEGLQEEARDAAAVGFDVTVCIHPSQIPVVRKAYRPSHEKLAWARRVLAASRSERGAFAFEGQMVDSPVLTHAETMLRRAGEATSE
# notes: also called β-HAClyase/thioesterase; CitE-like
# Biological target: the molecule itself
# Test: crystal structure
protein,measurement,value
B1,stoichiometry N,3
